This is an account of results in publication PMC8886817.

What is called stoichiometry N is a count of units in the complex or per binding partner. By koff is commonly meant a measure of how fast the partners let go of each other. A higher koff goes with fast dissociation.

For experiment [1], the target named is GST-549-SNAP-N-IQGAP1 (GST-SNAP-N-IQGAP1-6His, 1–522) (UniProt P46940). Nature of the experiment: single-molecule step photobleaching.
The target of experiment [2] is Rabbit skeletal muscle actin (RMA), as actin filaments (F-actin) (rabbit) (UniProt P68135). Kind of experiment: single-molecule microfluidics-assisted TIRF.
For experiment [3] the target is unchanged. Kind of experiment: open-flow TIRF microscopy of single filament growth.

“GST-549-SNAP-N-IQGAP1 (GST-SNAP-N-IQGAP1-6His, 1–522) (from UniProt P46940 1-522) (domain or fragment)” returned a stoichiometry N in experiment [1] of 2. In experiment [2], this substance yielded an average dwell time on filament sides of 6.8 min and a koff of 0.0025 s⁻¹.
As to “GST-C-IQGAP1 (675–1657) (from UniProt P46940 675-1657) (domain or fragment)”, the average pause time in experiment [3] was found to be 14.7 s.
